Data published in patent US20220281997A1.

Molecular target: camel-derived heavy-chain antibodies on camel PBMC cells
Test: flow cytometry, PE-labeled antibody on PBMC of a non-immunized camel

Row | proportion of PBMC cells specific for heavy-chain antibodies [%] | Binder
1 | 24.2 | R166.H9 (antibody, V domains shown) VH: QSLEESGGRLVTPGTPLTLTCTASGFSLNNYNMIWVRQAPGEGLEWIGMIGDGDDAAWYASWAKGRFTISKTSTTVDLEVTSLTTEDTAIYFCARYLSFTRLDLWGQGTLVTVSS VL: AVLTQTPSPVSAAVGGTVTINCQSSQSVYHNNWLAWYQQKPGQPPKLLIYGAATLASGVPSRFKGSGSGTQFTFTITDVQCDDVGTYYCAGVYNDDSENAFGGGTEVVVKG
2 | 22.8 | R166.C5 (antibody, V domains shown) VH: QSVEESGGRLVTPGTPLTLTCTVSGFSLRNFAMSWVRQAPGKGLEWIGIIYSGGTRDYATWAKGRFTISKTSTTVDLKMTSPTTEDTATYFCARDRSPDYSAAFLLWGQGTLVTVSS VL: IVMTQTPSSKSVPVGDTVTINCQASESVYSNNHLAWFQQKPGQPPKLLIYSASTLESGVPSRFKGSGSGTQFTLTISGVQCDDAATYYCAGYKSSDTDGTSFGGGTEVVVKG
3 | 23.6 | R166.H8 (antibody, V domains shown) VH: QSVEESGGRLVTPGTPLTLTCTVSGFSLSSFAMSWVRQAPGKGLEWIGIIYATGGTRDYATWAAGRFTISKTSTTVGLKMTSPTTEDTATYFCARDRSPDYSAAFNLWGQGTLVTVSS VL: IVMTQTPSSKSVPVGDTVTINCQASESVYSNNHLAWFQQKPGQPPKLLIYSASTLESGVPSRFKGSGSGTQFTLTISGVQCDDAATYYCAGYKSSDTDGTSFGGGTEVVVKG
4 | 23.3 | R166.E7 (antibody, V domains shown) VH: QSVEESGGRLVTPGTPLTLTCTVSGFSLSSFAMSWVRQAPGKGLEWIGIIYTGGTRDYATWAKGRFTISKTSTTVDLKMTSPTTEDTATYFCARDRSPDYSAAFNLWGQGTLVTVSS VL: IVMTQTPSSKSVPVGDTVTINCQASESVYSNNHLAWFQQKPGQPPKLLIYSASTLESGVPSRFKGSGSGTQFTLTISGVQCDDAATYYCAGYKSSDTDGTSFGGGTEVVVKG
5 | 17.2 | R166.G8 (antibody, V domains shown) VH: LEQSGGGAEGGLVKPGGSLELCCKASGFSLSNIYWICWVRQAPGTGLEWIGCINSGSNSYTYYANWVDGRFTLSRDIDQSTGCLQLNSLTAADTAMYYCARDRDAADTSDWSLNFWGQGTLVTVSS VL: QVLTQTPSSVSAAVGGTVTISCQSSDSVNNDNWLAWYQQKPGQPPKLLIYQASKLASGVPSRFSGSGSGTQFTLTISGVQCDDAANYYCQGTGYSSTWYVAFGGGTEVVVKG
